# Laboratory results as given in article PMC4521159.
# How the values were obtained:
# [1] = biological target: α-synuclein oligomers formed during incubation with IDE (37 °C, 48 h, agitation) (UniProt P37840)
# [2] = biological target: α-synuclein oligomers formed during incubation with IDE (37 °C, 48 h, agitation) (UniProt P37840); remark: listed apart in the source
# [3] = biological target: pre-formed α-synuclein oligomers (formed with the small molecule FN075) (UniProt P37840); experiment: ITC; 200 μM IDE in the syringe, 20 μM pre-formed α-synuclein oligomers (FN075) in the cell; 20 or 30 °C; 20 mM phosphate pH 7.4, 140 mM NaCl
substance,measurement,setting,value
Insulin-degrading enzyme (IDE) (from UniProt P14735 1-1019),kcat of 1 μM IDE on fluorogenic substrate V after 48 h pre-incubation with 0-100 μM α-synuclein (0.020 without; highest at 100 μM),[1],0.058 s⁻¹
same,kcat of 3 μM IDE on fluorogenic substrate V after 48 h pre-incubation with 0-70 μM α-synuclein (0.241 without; highest at 35 μM),[1],0.397 s⁻¹
same,kcat/KM of 1 μM IDE on fluorogenic substrate V after 48 h pre-incubation with 0-100 μM α-synuclein (1010 without; highest at 100 μM),[1],1190 M⁻¹ s⁻¹
same,kcat/KM of 3 μM IDE on fluorogenic substrate V after 48 h pre-incubation with 0-70 μM α-synuclein (25400 without; highest at 35 μM),[1],30500 M⁻¹ s⁻¹
same,"ThT fluorescence of 70 μM α-synuclein after 48 h (37 °C, agitation) with 0.2-6.0 μM IDE; half maximal inhibition of amyloid formation (molar ratio IDE to α-synuclein)",[2],0.025
same,stoichiometry N (IDE molecules per α-synuclein oligomer),[3],3
